Assay results as given in patent US20200270325A1 (Merck Sharp & Dohme, published 2020).
Numbered stars: 1 amine (or outer) side, 2 acyl side, 3 side chain; on linkers, the order of the positions; unused ones are H or OH. Square brackets hold non-standard residues; d marks the D form. Primed or numbered codes have the meaning given here. Side chains are listed from the residue outwards. Ends that are not written are not given here. * marks the point of attachment. Phe(4-CH2NH2) = NCc1ccc(C[C@H](N)C(=O)O)cc1; C18 diacid = O=C(O)CCCCCCCCCCCCCCCCC(=O)*; C16 diacid = O=C(O)CCCCCCCCCCCCCCC(=O)*; γGlu = O=C(O)[C@H](CCC(=O)[*:2])N[*:1]; Met(O2) = CS(=O)(=O)CC[C@H](N)C(=O)O; αMeD = C[C@](N)(CC(=O)O)C(=O)O; αMeS = C[C@](N)(CO)C(=O)O; PEG2′ = not defined here; AEEA = NCCOCCOCC(=O)O; Aib = CC(C)(N)C(=O)O

Experiments:
[1] = biological target: human GLP-1 receptor (GLP1R) (human, UniProt P43220 24-463); test: cell-based or functional assay
[2] = biological target: human Glucagon receptor (GCGR) (human, UniProt P47871 26-477); test: cell-based or functional assay
Sequence of human Glucagon receptor (GCGR) (P47871 26-477): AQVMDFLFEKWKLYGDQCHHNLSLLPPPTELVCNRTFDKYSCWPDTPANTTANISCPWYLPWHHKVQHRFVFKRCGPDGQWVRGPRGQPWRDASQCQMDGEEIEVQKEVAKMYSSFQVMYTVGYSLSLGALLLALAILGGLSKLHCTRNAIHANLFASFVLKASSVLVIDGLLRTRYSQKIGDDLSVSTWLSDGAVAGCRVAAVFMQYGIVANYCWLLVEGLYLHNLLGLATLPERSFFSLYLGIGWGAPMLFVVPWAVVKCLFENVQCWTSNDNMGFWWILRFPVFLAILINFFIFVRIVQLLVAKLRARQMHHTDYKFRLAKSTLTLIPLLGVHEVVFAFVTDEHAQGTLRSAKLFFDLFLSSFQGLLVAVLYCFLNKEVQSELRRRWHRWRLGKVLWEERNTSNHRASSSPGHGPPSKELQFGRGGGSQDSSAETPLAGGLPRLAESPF

| Binder | GLP1R EC50 human [1] [nM] | GCGR EC50 human [2] [nM] |
| --- | --- | --- |
| H[Aib]QGTFTSD[Phe(4-CH2NH2)]([AEEA-γGlu-C16 diacid])SKYLDARAAQDFVQWL[Met(O2)]DT-NH2 (N-terminus assumed; SMILES CC(C)C[C@H](NC(=O)[C@H](Cc1ccc(O)cc1)NC(=O)[C@H](CCCCN)NC(=O)[C@H](CO)NC(=O)[C@H](Cc1ccc(CNC(=O)COCCOCCNC(=O)CC[C@H](NC(=O)CCCCCCCCCCCCCCC(=O)O)C(=O)O)cc1)NC(=O)[C@H](CC(=O)O)NC(=O)[C@H](CO)NC(=O)[C@@H](NC(=O)[C@H](Cc1ccccc1)NC(=O)[C@@H](NC(=O)CNC(=O)[C@H](CCC(N)=O)NC(=O)C(C)(C)NC(=O)[C@@H](N)Cc1c[nH]cn1)[C@@H](C)O)[C@@H](C)O)C(=O)N[C@@H](CC(=O)O)C(=O)N[C@@H](C)C(=O)N[C@@H](CCCNC(=N)N)C(=O)N[C@@H](C)C(=O)N[C@@H](C)C(=O)N[C@@H](CCC(N)=O)C(=O)N[C@@H](CC(=O)O)C(=O)N[C@@H](Cc1ccccc1)C(=O)N[C@H](C(=O)N[C@@H](CCC(N)=O)C(=O)N[C@@H](Cc1c[nH]c2ccccc12)C(=O)N[C@@H](CC(C)C)C(=O)N[C@@H](CCS(C)(=O)=O)C(=O)N[C@@H](CC(=O)O)C(=O)N[C@H](C(N)=O)[C@@H](C)O)C(C)C) [TP622] | 0.09 | 0.03 |
| H[αMS]QGTFTSDYSKYLD[Aib]RAAQK([PEG2′-PEG2′-γGlu-C16 diacid])FVQWL[Met(O2)][αMD]T-NH2 [TP619] | 0.38 | 0.05 |
| H[Aib]QGTFTSD[Phe(4-CH2NH2)]([AEEA-γGlu-C18 diacid])SKYLDARAAQDFVQWL[Met(O2)]DT-NH2 (N-terminus assumed; SMILES CC(C)C[C@H](NC(=O)[C@H](Cc1ccc(O)cc1)NC(=O)[C@H](CCCCN)NC(=O)[C@H](CO)NC(=O)[C@H](Cc1ccc(CNC(=O)COCCOCCNC(=O)CC[C@H](NC(=O)CCCCCCCCCCCCCCCCC(=O)O)C(=O)O)cc1)NC(=O)[C@H](CC(=O)O)NC(=O)[C@H](CO)NC(=O)[C@@H](NC(=O)[C@H](Cc1ccccc1)NC(=O)[C@@H](NC(=O)CNC(=O)[C@H](CCC(N)=O)NC(=O)C(C)(C)NC(=O)[C@@H](N)Cc1c[nH]cn1)[C@@H](C)O)[C@@H](C)O)C(=O)N[C@@H](CC(=O)O)C(=O)N[C@@H](C)C(=O)N[C@@H](CCCNC(=N)N)C(=O)N[C@@H](C)C(=O)N[C@@H](C)C(=O)N[C@@H](CCC(N)=O)C(=O)N[C@@H](CC(=O)O)C(=O)N[C@@H](Cc1ccccc1)C(=O)N[C@H](C(=O)N[C@@H](CCC(N)=O)C(=O)N[C@@H](Cc1c[nH]c2ccccc12)C(=O)N[C@@H](CC(C)C)C(=O)N[C@@H](CCS(C)(=O)=O)C(=O)N[C@@H](CC(=O)O)C(=O)N[C@H](C(N)=O)[C@@H](C)O)C(C)C) [TP623] | 0.17 | 0.09 |
| H[αMeS]QGTFTSDYSKYLDARAAQK([AEEA-AEEA-γGlu-C18 diacid])FVQWL[Met(O2)][αMeD]T-NH2 (N-terminus assumed; SMILES CC(C)C[C@H](NC(=O)[C@H](Cc1ccc(O)cc1)NC(=O)[C@H](CCCCN)NC(=O)[C@H](CO)NC(=O)[C@H](Cc1ccc(O)cc1)NC(=O)[C@H](CC(=O)O)NC(=O)[C@H](CO)NC(=O)[C@@H](NC(=O)[C@H](Cc1ccccc1)NC(=O)[C@@H](NC(=O)CNC(=O)[C@H](CCC(N)=O)NC(=O)[C@](C)(CO)NC(=O)[C@@H](N)Cc1c[nH]cn1)[C@@H](C)O)[C@@H](C)O)C(=O)N[C@@H](CC(=O)O)C(=O)N[C@@H](C)C(=O)N[C@@H](CCCNC(=N)N)C(=O)N[C@@H](C)C(=O)N[C@@H](C)C(=O)N[C@@H](CCC(N)=O)C(=O)N[C@@H](CCCCNC(=O)COCCOCCNC(=O)COCCOCCNC(=O)CC[C@H](NC(=O)CCCCCCCCCCCCCCCCC(=O)O)C(=O)O)C(=O)N[C@@H](Cc1ccccc1)C(=O)N[C@H](C(=O)N[C@@H](CCC(N)=O)C(=O)N[C@@H](Cc1c[nH]c2ccccc12)C(=O)N[C@@H](CC(C)C)C(=O)N[C@@H](CCS(C)(=O)=O)C(=O)N[C@@](C)(CC(=O)O)C(=O)N[C@H](C(N)=O)[C@@H](C)O)C(C)C) [TP617] | 0.76 | 0.56 |
| H[αMeS]QGTFTSDYSKYLDARAAK([AEEA-AEEA-γGlu-C18 diacid])DFVQWL[Met(O2)][αMeD]T-NH2 (N-terminus assumed; SMILES CC(C)C[C@H](NC(=O)[C@H](Cc1ccc(O)cc1)NC(=O)[C@H](CCCCN)NC(=O)[C@H](CO)NC(=O)[C@H](Cc1ccc(O)cc1)NC(=O)[C@H](CC(=O)O)NC(=O)[C@H](CO)NC(=O)[C@@H](NC(=O)[C@H](Cc1ccccc1)NC(=O)[C@@H](NC(=O)CNC(=O)[C@H](CCC(N)=O)NC(=O)[C@](C)(CO)NC(=O)[C@@H](N)Cc1c[nH]cn1)[C@@H](C)O)[C@@H](C)O)C(=O)N[C@@H](CC(=O)O)C(=O)N[C@@H](C)C(=O)N[C@@H](CCCNC(=N)N)C(=O)N[C@@H](C)C(=O)N[C@@H](C)C(=O)N[C@@H](CCCCNC(=O)COCCOCCNC(=O)COCCOCCNC(=O)CC[C@H](NC(=O)CCCCCCCCCCCCCCCCC(=O)O)C(=O)O)C(=O)N[C@@H](CC(=O)O)C(=O)N[C@@H](Cc1ccccc1)C(=O)N[C@H](C(=O)N[C@@H](CCC(N)=O)C(=O)N[C@@H](Cc1c[nH]c2ccccc12)C(=O)N[C@@H](CC(C)C)C(=O)N[C@@H](CCS(C)(=O)=O)C(=O)N[C@@](C)(CC(=O)O)C(=O)N[C@H](C(N)=O)[C@@H](C)O)C(C)C) [TP616] | 1.96 | 1.39 |
| H[αMeS]QGTFTSDYSKYLD[Aib]RAAK([AEEA-AEEA-γGlu-C16 diacid])DFVQWL[Met(O2)][αMeD]T-NH2 (N-terminus assumed; SMILES CC(C)C[C@H](NC(=O)[C@H](Cc1ccc(O)cc1)NC(=O)[C@H](CCCCN)NC(=O)[C@H](CO)NC(=O)[C@H](Cc1ccc(O)cc1)NC(=O)[C@H](CC(=O)O)NC(=O)[C@H](CO)NC(=O)[C@@H](NC(=O)[C@H](Cc1ccccc1)NC(=O)[C@@H](NC(=O)CNC(=O)[C@H](CCC(N)=O)NC(=O)[C@](C)(CO)NC(=O)[C@@H](N)Cc1c[nH]cn1)[C@@H](C)O)[C@@H](C)O)C(=O)N[C@@H](CC(=O)O)C(=O)NC(C)(C)C(=O)N[C@@H](CCCNC(=N)N)C(=O)N[C@@H](C)C(=O)N[C@@H](C)C(=O)N[C@@H](CCCCNC(=O)COCCOCCNC(=O)COCCOCCNC(=O)CC[C@H](NC(=O)CCCCCCCCCCCCCCC(=O)O)C(=O)O)C(=O)N[C@@H](CC(=O)O)C(=O)N[C@@H](Cc1ccccc1)C(=O)N[C@H](C(=O)N[C@@H](CCC(N)=O)C(=O)N[C@@H](Cc1c[nH]c2ccccc12)C(=O)N[C@@H](CC(C)C)C(=O)N[C@@H](CCS(C)(=O)=O)C(=O)N[C@@](C)(CC(=O)O)C(=O)N[C@H](C(N)=O)[C@@H](C)O)C(C)C) [TP618] | 2.48 | 0.36 |
| H[αMeS]QGTFTSDYSKYLD[Aib]RAAK([AEEA-AEEA-γGlu-C18 diacid])DFVQWL[Met(O2)][αMeD]T-NH2 (N-terminus assumed; SMILES CC(C)C[C@H](NC(=O)[C@H](Cc1ccc(O)cc1)NC(=O)[C@H](CCCCN)NC(=O)[C@H](CO)NC(=O)[C@H](Cc1ccc(O)cc1)NC(=O)[C@H](CC(=O)O)NC(=O)[C@H](CO)NC(=O)[C@@H](NC(=O)[C@H](Cc1ccccc1)NC(=O)[C@@H](NC(=O)CNC(=O)[C@H](CCC(N)=O)NC(=O)[C@](C)(CO)NC(=O)[C@@H](N)Cc1c[nH]cn1)[C@@H](C)O)[C@@H](C)O)C(=O)N[C@@H](CC(=O)O)C(=O)NC(C)(C)C(=O)N[C@@H](CCCNC(=N)N)C(=O)N[C@@H](C)C(=O)N[C@@H](C)C(=O)N[C@@H](CCCCNC(=O)COCCOCCNC(=O)COCCOCCNC(=O)CC[C@H](NC(=O)CCCCCCCCCCCCCCCCC(=O)O)C(=O)O)C(=O)N[C@@H](CC(=O)O)C(=O)N[C@@H](Cc1ccccc1)C(=O)N[C@H](C(=O)N[C@@H](CCC(N)=O)C(=O)N[C@@H](Cc1c[nH]c2ccccc12)C(=O)N[C@@H](CC(C)C)C(=O)N[C@@H](CCS(C)(=O)=O)C(=O)N[C@@](C)(CC(=O)O)C(=O)N[C@H](C(N)=O)[C@@H](C)O)C(C)C) [TP620] | 8.58 | 1.26 |
| H[αMeS]QGTFTSDYSKYLD[Aib]RAAQK([AEEA-AEEA-γGlu-C18 diacid])FVQWL[Met(O2)][αMeD]T-NH2 (N-terminus assumed; SMILES CC(C)C[C@H](NC(=O)[C@H](Cc1ccc(O)cc1)NC(=O)[C@H](CCCCN)NC(=O)[C@H](CO)NC(=O)[C@H](Cc1ccc(O)cc1)NC(=O)[C@H](CC(=O)O)NC(=O)[C@H](CO)NC(=O)[C@@H](NC(=O)[C@H](Cc1ccccc1)NC(=O)[C@@H](NC(=O)CNC(=O)[C@H](CCC(N)=O)NC(=O)[C@](C)(CO)NC(=O)[C@@H](N)Cc1c[nH]cn1)[C@@H](C)O)[C@@H](C)O)C(=O)N[C@@H](CC(=O)O)C(=O)NC(C)(C)C(=O)N[C@@H](CCCNC(=N)N)C(=O)N[C@@H](C)C(=O)N[C@@H](C)C(=O)N[C@@H](CCC(N)=O)C(=O)N[C@@H](CCCCNC(=O)COCCOCCNC(=O)COCCOCCNC(=O)CC[C@H](NC(=O)CCCCCCCCCCCCCCCCC(=O)O)C(=O)O)C(=O)N[C@@H](Cc1ccccc1)C(=O)N[C@H](C(=O)N[C@@H](CCC(N)=O)C(=O)N[C@@H](Cc1c[nH]c2ccccc12)C(=O)N[C@@H](CC(C)C)C(=O)N[C@@H](CCS(C)(=O)=O)C(=O)N[C@@](C)(CC(=O)O)C(=O)N[C@H](C(N)=O)[C@@H](C)O)C(C)C) [TP621] | 1.94 | 0.25 |
